Test results published in patent publication US20090214428A1 (HENRY M JACKSON FOUNDATION FOR THE ADVANCEMENT OF MILITARY …, published 2009).

Molecular target: T1, myc-tagged NiV G (full-length, from lysates of infected cells) (Nipah virus, UniProt Q9IH62 1-602)
T1 sequence: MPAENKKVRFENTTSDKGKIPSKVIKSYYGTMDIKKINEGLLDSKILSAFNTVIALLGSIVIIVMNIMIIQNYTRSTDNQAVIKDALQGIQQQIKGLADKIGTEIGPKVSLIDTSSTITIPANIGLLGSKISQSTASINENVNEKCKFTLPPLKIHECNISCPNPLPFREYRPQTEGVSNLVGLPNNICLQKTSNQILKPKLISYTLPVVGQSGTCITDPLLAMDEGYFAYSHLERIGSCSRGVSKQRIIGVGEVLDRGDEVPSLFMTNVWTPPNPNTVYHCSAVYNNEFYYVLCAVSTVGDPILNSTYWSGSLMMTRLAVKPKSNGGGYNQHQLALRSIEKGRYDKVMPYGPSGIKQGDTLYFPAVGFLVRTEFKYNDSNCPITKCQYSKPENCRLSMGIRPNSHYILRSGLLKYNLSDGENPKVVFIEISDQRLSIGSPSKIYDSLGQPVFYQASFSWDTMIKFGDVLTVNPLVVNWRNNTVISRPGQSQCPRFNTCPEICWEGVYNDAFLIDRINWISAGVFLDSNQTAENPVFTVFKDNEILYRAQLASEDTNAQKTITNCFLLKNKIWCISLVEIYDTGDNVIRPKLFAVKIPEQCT
Experiment: immunoprecipitation of 35S-labelled myc-tagged G from cell lysate

B1: Fab m102 (Fab, V domains shown)
VH: EVQLVQSGAEVKKPGSSVKVSCKSSGGTFSNYAINWVRQAPGQGLEWMGGIIPILGIANYAQKFQGRVTITTDESTSTAYMELSSLRSEDTAVYYCARGWGREQLAPHPSQYYYYYYGMDVWGQGTTVTVSS
VL: EIVLTQSPGTLSLSPGERATLSCRASQSITNGRLAWYQQKPGQAPRLLIYGVSSRASGIPERFSGSGSGTDFTLTISRLEPEDFAVYYCQQYGSSVLFGPGTKVDIKR
B1: binds.
